This is an account of results in the Human Domainome abundance scans (Beltran et al. 2025).

± gives the uncertainty stated by the source.

B1: SH3 and PX domain-containing protein 2B, residues 155 to 209; numbered along this chain, A1X283 (parent)
chain: EQYVVVANYQKQESSEISLSVGQVVDIIEKNESGWWFVSTAEEQGWVPATCLEGQ

The variants in the series derive from B1. The series can be described thus: abundance fitness (aPCA) (normalised: wild type 0, dead -1); higher = more abundant; growth selection in yeast, the domain comes from the species named. Particulars: Homo sapiens.
As to EQYVVVANYQKQESSEISLSVGQVVDIIEKNESGWWFVSTAEEQGWVPATHLEGQ, the abundance fitness was -0.322 ± 0.22.

Take EQYVVVANYQKQESSEISLSVGQVVDIIEKNESGWWFVSTAEEQGWVPATRLEGQ: the abundance fitness was -0.343 ± 0.071. As for EQYVVVANYQKQESSEISLSVGQVVDIIEKNESGWWFVSTAEEQGWVPATLLEGQ, the abundance fitness was -0.267 ± 0.085. For EQYVVVANYQKQESSEISLSVGQVVDIIEKNESGWWFVSTAEEQGWVPATDLEGQ, the abundance fitness was -0.737 ± 0.14. For the variant EQYVVVANYQKQESSEISLSVGQVVDIIEKNESGWWFVSTAEEQGWVPATGLEGQ, the abundance fitness is -0.711 ± 0.08. Next, EQYVVVANYQKQESSEISLSVGQVVDIIEKNESGWWFVSTAEEQGWVPATELEGQ: -0.944 ± 0.19; EQYVVVANYQKQESSEISLSVGQVVDIIEKNESGWWFVSTAEEQGWVPATWLEGQ: -0.596 ± 0.096. For EQYVVVANYQKQESSEISLSVGQVVDIIEKNESGWWFVSTAEEQGWVPATYLEGQ, the abundance fitness was -0.271 ± 0.12. With EQYVVVANYQKQESSEISLSVGQVVDIIEKNESGWWFVSTAEEQGWVPATVLEGQ, the abundance fitness was -0.107 ± 0.071. For EQYVVVANYQKQESSEISLSVGQVVDIIEKNESGWWFVSTAEEQGWVPATKLEGQ the value was -0.245 ± 0.14; for EQYVVVANYQKQESSEISLSVGQVVDIIEKNESGWWFVSTAEEQGWVPATSLEGQ, -0.219 ± 0.087. Next, EQYVVVANYQKQESSEISLSVGQVVDIIEKNESGWWFVSTAEEQGWVPATMLEGQ: -0.787 ± 0.36; EQYVVVANYQKQESSEISLSVGQVVDIIEKNESGWWFVSTAEEQGWVPATALEGQ: -0.12 ± 0.11; EQYVVVANYQKQESSEISLSVGQVVDIIEKNESGWWFVSTAEEQGWVPATQLEGQ: -0.349 ± 0.13. Turning to EQYVVVANYQKQESSEISLSVGQVVDIIEKNESGWWFVSTAEEQGWVPATFLEGQ, the abundance fitness was -0.212 ± 0.1. With EQYVVVANYQKQESSEISLSVGQVVDIIEKNESGWWFVSTAEEQGWVPATCLEGD, the abundance fitness was -0.034 ± 0.16.

Regarding EQYVVVANYQKQESSEISLSVGQVVDIIEKNESGWWFVSTAEEQGWVPATCLMGQ, the abundance fitness is -0.144 ± 0.1. Next, EQYVVVANYQKQESSEISLSVGQVVDIIEKNESGWWFVSTAEEQGWVPATCLQGQ: 0.027 ± 0.12. In the case of EQYVVVANYQKQESSEISLSVGQVVDIIEKNESGWWFVSTAEEQGWVPATCLHGQ, the abundance fitness is -0.138 ± 0.13. Turning to EQYVVVANYQKQESSEISLSVGQVVDIIEKNESGWWFVSTAEEQGWVPATCLSGQ, the abundance fitness was -0.05 ± 0.083.

EQYVVVANYQKQESSEISLSVGQVVDIIEKNESGWWFVSTAEEQGWVPATCLGGQ: the abundance fitness is -0.008 ± 0.083. Turning to EQYVVVANYQKQESSEISLSVGQVVDIIEKNESGWWFVSTAEEQGWVPATCLFGQ, the abundance fitness was -0.33 ± 0.14. In the case of EQYVVVANYQKQESSEISLSVGQVVDIIEKNESGWWFVSTAEEQGWVPATCLKGQ, the abundance fitness was -0.004 ± 0.13. In the case of EQYVVVANYQKQESSEISLSVGQVVDIIEKNESGWWFVSTAEEQGWVPATCLVGQ, the abundance fitness is -0.128 ± 0.1.

For the variant EQYVVVANYQKQESSEISLSVGQVVDIIEKNESGWWFVSTAEEQGWVPATCLTGQ, the abundance fitness is -0.018 ± 0.095.

Take EQYVVVANYQKQESSEISLSVGQVVDIIEKNESGWWFVSTAEEQGWVPATCLLGQ: the abundance fitness is -0.2 ± 0.077. For EQYVVVANYQKQESSEISLSVGQVVDIIEKNESGWWFVSTAEEQGWVPATCLIGQ the value was -0.289 ± 0.15; for EQYVVVANYQKQESSEISLSVGQVVDIIEKNESGWWFVSTAEEQGWVPATCLCGQ, -0.14 ± 0.12.

EQYVVVANYQKQESSEISLSVGQVVDIIEKNESGWWFVSTAEEQGWVPATCLYGQ: the abundance fitness was -0.252 ± 0.15. For the variant EQYVVVANYQKQESSEISLSVGQVVDIIEKNESGWWFVSTAEEQGWVPATCLAGQ, the abundance fitness was -0.014 ± 0.07. Next, EQYVVVANYQKQESSEISLSVGQVVDIIEKNESGWWFVSTAEEQGWVPATCLDGQ: -0.073 ± 0.12. For EQYVVVANYQKQESSEISLSVGQVVDIIEKNESGWWFVSTAEEQGWVPATCLRGQ the value was -0.064 ± 0.08; for EQYVVVANYQKQESSEISLSVGQVVDIIEKNESGWWFVSTAEEQGWVPATCLWGQ, -0.477 ± 0.097. Take EQYVVVANYQKQESSEISLSVGQVVDIIEKNESGWWFVSTAEEQGWVPATCDEGQ: the abundance fitness is -0.942 ± 0.17. As to EQYVVVANYQKQESSEISLSVGQVVDIIEKNESGWWFVSTAEEQGWVPATCHEGQ, the abundance fitness is -0.773 ± 0.43. As for EQYVVVANYQKQESSEISLSVGQVVDIIEKNESGWWFVSTAEEQGWVPATCKEGQ, the abundance fitness is -0.647 ± 0.19. Take EQYVVVANYQKQESSEISLSVGQVVDIIEKNESGWWFVSTAEEQGWVPATCPEGQ: the abundance fitness is -0.826 ± 0.24. Take EQYVVVANYQKQESSEISLSVGQVVDIIEKNESGWWFVSTAEEQGWVPATCNEGQ: the abundance fitness is -1.05 ± 0.23. EQYVVVANYQKQESSEISLSVGQVVDIIEKNESGWWFVSTAEEQGWVPATCFEGQ: the abundance fitness is -0.083 ± 0.093. For EQYVVVANYQKQESSEISLSVGQVVDIIEKNESGWWFVSTAEEQGWVPATCYEGQ, the abundance fitness was -1.07 ± 0.25.

For the variant EQYVVVANYQKQESSEISLSVGQVVDIIEKNESGWWFVSTAEEQGWVPATCVEGQ, the abundance fitness is -0.049 ± 0.067.

With EQYVVVANYQKQESSEISLSVGQVVDIIEKNESGWWFVSTAEEQGWVPATCEEGQ, the abundance fitness was -1.1 ± 0.19.

For EQYVVVANYQKQESSEISLSVGQVVDIIEKNESGWWFVSTAEEQGWVPATCQEGQ, the abundance fitness is -1.05 ± 0.26. Regarding EQYVVVANYQKQESSEISLSVGQVVDIIEKNESGWWFVSTAEEQGWVPATCWEGQ, the abundance fitness is -0.775 ± 0.16.

In the case of EQYVVVANYQKQESSEISLSVGQVVDIIEKNESGWWFVSTAEEQGWVPATCCEGQ, the abundance fitness is -0.227 ± 0.18. Next, EQYVVVANYQKQESSEISLSVGQVVDIIEKNESGWWFVSTAEEQGWVPATCMEGQ: -0.168 ± 0.1. Consider EQYVVVANYQKQESSEISLSVGQVVDIIEKNESGWWFVSTAEEQGWVPATCTEGQ, for which the abundance fitness was -1.22 ± 0.29. Consider EQYVVVANYQKQESSEISLSVGQVVDIIEKNESGWWFVSTAEEQGWVPATCREGQ, for which the abundance fitness was -0.835 ± 0.12.
